B1: NP_002788.1 (parent)
chain: DGWIRVSSDNVADLHEKYSGSTP
B2: USP39 (parent)
chain: FVEKNPTIVNFPITNVDLREYLSE

Variants of: B1
Assay: protein stability index of a GFP-peptide fusion (GPS, HEK-293T) (PSI 1-6); higher = more stable
Details: c terminus: native

Question: With DGWIRVSSDNVADLHEKYSGSTW [P23W] as the variant, how does the protein stability index read?
Answer: 3.31

Question: For DGWIRVSSDNVADLHEKYSGSTY [P23Y], which protein stability index is on record?
Answer: 4.27

Variants of: B2
Assay: as above
Details: c terminus: a fixed tail appended

Question: Which protein stability index does the source give for FVEKNPTSVNFPITNVDLREYLSE [I8S] here?
Answer: 2.89

Question: For FVEKNKTIVNFPITNVDLREYLSE [P6K], which protein stability index is on record?
Answer: 2.76

Question: For FVEKNPTIVNFPITNVDLREYLSK [E24K], which protein stability index is on record?
Answer: 1.84

Question: Which protein stability index does the source give for FVEKNPTIVNFPITNVDCREYLSE [L18C] here?
Answer: 2.64

Question: For FVEKNPTIVRFPITNVDLREYLSE [N10R], which protein stability index is on record?
Answer: 1.8

Question: With FVESNPTIVNFPITNVDLREYLSE [K4S] as the variant, how does the protein stability index read?
Answer: 2.52

Question: For FVEKNPTIVNFPITNVDWREYLSE [L18W], which protein stability index is on record?
Answer: 2.33

Question: For FVEKMPTIVNFPITNVDLREYLSE [N5M], which protein stability index is on record?
Answer: 2.15

Question: For FVEKNPTIVNFPKTNVDLREYLSE [I13K], which protein stability index is on record?
Answer: 2.25

Question: With FVEKNPTIVNFPIVNVDLREYLSE [T14V] as the variant, how does the protein stability index read?
Answer: 2.08

Question: Which protein stability index does the source give for FVEKNCTIVNFPITNVDLREYLSE [P6C] here?
Answer: 2.45

Question: For AVEKNPTIVNFPITNVDLREYLSE [F1A], which protein stability index is on record?
Answer: 3.59

Question: With FVEKNPTIVNFPITNVDLREVLSE [Y21V] as the variant, how does the protein stability index read?
Answer: 1.52

Question: For FVEKNPTIVNFPITNVDLREYLVE [S23V], which protein stability index is on record?
Answer: 1.77

Question: With FVEMNPTIVNFPITNVDLREYLSE [K4M] as the variant, how does the protein stability index read?
Answer: 1.54

Question: With FVEKNPHIVNFPITNVDLREYLSE [T7H] as the variant, how does the protein stability index read?
Answer: 1.69

Question: For FVEKNPTIVNFPITNGDLREYLSE [V16G], which protein stability index is on record?
Answer: 1.89

Question: With FVEKNPTIVNFPITNQDLREYLSE [V16Q] as the variant, how does the protein stability index read?
Answer: 1.99

Question: For FVHKNPTIVNFPITNVDLREYLSE [E3H], which protein stability index is on record?
Answer: 1.83

Question: Which protein stability index does the source give for FVEKNPTIVNFPITNADLREYLSE [V16A] here?
Answer: 2.02

Question: With FVEKNPTIVNFPIHNVDLREYLSE [T14H] as the variant, how does the protein stability index read?
Answer: 2.09

Question: For FVEKNPTIMNFPITNVDLREYLSE [V9M], which protein stability index is on record?
Answer: 1.63

Question: For FVEKNPTIVNFPITNVDLREYLSD [E24D], which protein stability index is on record?
Answer: 1.37

Question: For FVEKNPTIVNFEITNVDLREYLSE [P12E], which protein stability index is on record?
Answer: 1.66

Question: Which protein stability index does the source give for FVEKNPTIVNFPITHVDLREYLSE [N15H] here?
Answer: 1.44

Question: With FVEKNPTQVNFPITNVDLREYLSE [I8Q] as the variant, how does the protein stability index read?
Answer: 2.54

Question: Which protein stability index does the source give for FVEKNPTGVNFPITNVDLREYLSE [I8G] here?
Answer: 1.91

Question: Which protein stability index does the source give for FVEKNPTIVNFPCTNVDLREYLSE [I13C] here?
Answer: 1.77

Question: With FVEKNPTIVNFPITNVDIREYLSE [L18I] as the variant, how does the protein stability index read?
Answer: 2.53

Question: With FVEKNPTIVNFPFTNVDLREYLSE [I13F] as the variant, how does the protein stability index read?
Answer: 2.08

Question: For FVEKNPTIVNFPITNVDGREYLSE [L18G], which protein stability index is on record?
Answer: 2.1

Question: For FVEKNPTIVHFPITNVDLREYLSE [N10H], which protein stability index is on record?
Answer: 1.75

Question: Which protein stability index does the source give for FCEKNPTIVNFPITNVDLREYLSE [V2C] here?
Answer: 2.94

Question: With FVEKNPTIVNFPITNVDLREYLAE [S23A] as the variant, how does the protein stability index read?
Answer: 1.57

Question: For FVEKNPTYVNFPITNVDLREYLSE [I8Y], which protein stability index is on record?
Answer: 1.55

Question: With FVEKNPTIVNFPITNVDLRENLSE [Y21N] as the variant, how does the protein stability index read?
Answer: 1.9

Question: With FVEKNPTIVNFPITKVDLREYLSE [N15K] as the variant, how does the protein stability index read?
Answer: 2.13

Question: With FVEKNPTIVNFPITNVDYREYLSE [L18Y] as the variant, how does the protein stability index read?
Answer: 1.92

Question: With LVEKNPTIVNFPITNVDLREYLSE [F1L] as the variant, how does the protein stability index read?
Answer: 3.95

Question: Which protein stability index does the source give for FVEKNPTIVNFPIINVDLREYLSE [T14I] here?
Answer: 3.46

Question: For FVCKNPTIVNFPITNVDLREYLSE [E3C], which protein stability index is on record?
Answer: 1.52

Question: Which protein stability index does the source give for FVEKNPTIVNFPYTNVDLREYLSE [I13Y] here?
Answer: 1.73

Question: With FVEKNPTPVNFPITNVDLREYLSE [I8P] as the variant, how does the protein stability index read?
Answer: 2.76

Question: With FVEKNPTIVNFPITNVDLDEYLSE [R19D] as the variant, how does the protein stability index read?
Answer: 1.44

Question: With FVEKNPTIVNFPITNVDLRGYLSE [E20G] as the variant, how does the protein stability index read?
Answer: 1.13

Question: For FVNKNPTIVNFPITNVDLREYLSE [E3N], which protein stability index is on record?
Answer: 1.85

Question: For FVEKNPTIVSFPITNVDLREYLSE [N10S], which protein stability index is on record?
Answer: 1.76

Question: Which protein stability index does the source give for QVEKNPTIVNFPITNVDLREYLSE [F1Q] here?
Answer: 3.71

Question: For FVEKLPTIVNFPITNVDLREYLSE [N5L], which protein stability index is on record?
Answer: 2.63

Question: Which protein stability index does the source give for FVEKNPTIVNFPITNVDLREYLDE [S23D] here?
Answer: 1.84

Question: For FVEKNPTIVNFPITNVDLFEYLSE [R19F], which protein stability index is on record?
Answer: 2.81

Question: With FNEKNPTIVNFPITNVDLREYLSE [V2N] as the variant, how does the protein stability index read?
Answer: 3.68

Question: For FVEKNPTIVNRPITNVDLREYLSE [F11R], which protein stability index is on record?
Answer: 2.02

Question: Which protein stability index does the source give for FVEKNPTIVNFPITNVDLREYLNE [S23N] here?
Answer: 1.65

Question: With FVEKNPTIVNFPITNVDLPEYLSE [R19P] as the variant, how does the protein stability index read?
Answer: 2.08

Question: With FVEKNPTIVNYPITNVDLREYLSE [F11Y] as the variant, how does the protein stability index read?
Answer: 3.36

Question: For FAEKNPTIVNFPITNVDLREYLSE [V2A], which protein stability index is on record?
Answer: 2.75

Question: For FVEKNPTIVNFPITNVDLREYYSE [L22Y], which protein stability index is on record?
Answer: 1.9

Question: With FVEKAPTIVNFPITNVDLREYLSE [N5A] as the variant, how does the protein stability index read?
Answer: 1.35

Question: Which protein stability index does the source give for FVEKNPTIVNFPINNVDLREYLSE [T14N] here?
Answer: 2.67

Question: Which protein stability index does the source give for FVVKNPTIVNFPITNVDLREYLSE [E3V] here?
Answer: 2.25

Question: With FVEHNPTIVNFPITNVDLREYLSE [K4H] as the variant, how does the protein stability index read?
Answer: 2.03

Question: With FVEKNPTKVNFPITNVDLREYLSE [I8K] as the variant, how does the protein stability index read?
Answer: 2.04

Question: Which protein stability index does the source give for FHEKNPTIVNFPITNVDLREYLSE [V2H] here?
Answer: 2.94

Question: Which protein stability index does the source give for FVEKNPTIVNFPITNVDLREYLSS [E24S] here?
Answer: 1.88

Question: For FVEKGPTIVNFPITNVDLREYLSE [N5G], which protein stability index is on record?
Answer: 1.51

Question: With FVEKNPTIVNFPITNVDLREYLSY [E24Y] as the variant, how does the protein stability index read?
Answer: 1.84

Question: Which protein stability index does the source give for SVEKNPTIVNFPITNVDLREYLSE [F1S] here?
Answer: 4.11

Question: With FVEKNFTIVNFPITNVDLREYLSE [P6F] as the variant, how does the protein stability index read?
Answer: 2.6

Question: Which protein stability index does the source give for FVEKNPTIVNFPIDNVDLREYLSE [T14D] here?
Answer: 2.65

Question: For FVEKNPTIVNFPITNVMLREYLSE [D17M], which protein stability index is on record?
Answer: 1.62

Question: With FVEKNPTIVNFPILNVDLREYLSE [T14L] as the variant, how does the protein stability index read?
Answer: 1.86

Question: Which protein stability index does the source give for FVEKNPTIVNTPITNVDLREYLSE [F11T] here?
Answer: 2.02

Question: For FVEKNPTIVNFPITNVSLREYLSE [D17S], which protein stability index is on record?
Answer: 2.28

Question: Which protein stability index does the source give for PVEKNPTIVNFPITNVDLREYLSE [F1P] here?
Answer: 3.85

Question: With FVEKNPTIVNFPITRVDLREYLSE [N15R] as the variant, how does the protein stability index read?
Answer: 2.21

Question: Which protein stability index does the source give for FVEKNPTIVNFPITNVKLREYLSE [D17K] here?
Answer: 1.11

Question: Which protein stability index does the source give for FVAKNPTIVNFPITNVDLREYLSE [E3A] here?
Answer: 1.49

Question: With FVEKNPTIVNFPITNVDLREKLSE [Y21K] as the variant, how does the protein stability index read?
Answer: 1.21

Question: With FVENNPTIVNFPITNVDLREYLSE [K4N] as the variant, how does the protein stability index read?
Answer: 2.05

Question: With FVEKNPTIVNFPITNVDLREYTSE [L22T] as the variant, how does the protein stability index read?
Answer: 2.03

Question: Which protein stability index does the source give for FVEKRPTIVNFPITNVDLREYLSE [N5R] here?
Answer: 1.94

Question: Which protein stability index does the source give for FVEKNITIVNFPITNVDLREYLSE [P6I] here?
Answer: 2.61

Question: Which protein stability index does the source give for FVEKNPTIVGFPITNVDLREYLSE [N10G] here?
Answer: 2.93

Question: With FEEKNPTIVNFPITNVDLREYLSE [V2E] as the variant, how does the protein stability index read?
Answer: 3.88

Question: With FVEKNPTIVNFPITNVRLREYLSE [D17R] as the variant, how does the protein stability index read?
Answer: 2.25

Question: For FVEKNPTIVNFPITNVDLREYLCE [S23C], which protein stability index is on record?
Answer: 2.41

Question: For FVEKKPTIVNFPITNVDLREYLSE [N5K], which protein stability index is on record?
Answer: 2.74

Question: With FVEKNPTIVNFPITNVDLGEYLSE [R19G] as the variant, how does the protein stability index read?
Answer: 1.64

Question: With FVEKNPLIVNFPITNVDLREYLSE [T7L] as the variant, how does the protein stability index read?
Answer: 2.02

Question: Which protein stability index does the source give for FVEKSPTIVNFPITNVDLREYLSE [N5S] here?
Answer: 2.08

Question: For FVEKNPTFVNFPITNVDLREYLSE [I8F], which protein stability index is on record?
Answer: 2.25

Question: With FVEKNYTIVNFPITNVDLREYLSE [P6Y] as the variant, how does the protein stability index read?
Answer: 2.82

Question: With FVEVNPTIVNFPITNVDLREYLSE [K4V] as the variant, how does the protein stability index read?
Answer: 1.81

Reference: the supplement of paper PMC10567573
